Laboratory results taken from US20240117334A1, “FACTOR B PROTEASES” (Vertex Pharmaceuticals Incorporated, priority 2021, published 2024).
Positions count from the first letter of the chain named. Numbers in names are those of the source.

B1: chymase C22S/P38Q/K40A/F41R/L99H/V138I/D175N/A190S/V213A/S218I/A226R (enzyme)
chain: IIGGTESKPHSRPYMAYLEIVTSNGQSARCGGFLIRRNFVLTAAHCAGRSITVTLGAHNITEEEDTWQKLEVIKQFRHPKYNTSTHHHDIMLLKLKEKASLTLAVGTLPFPSQFNFVPPGRMCRIAGWGRTGVLKPGSDTLQEVKLRLMDPQACSHFRNFDHNLQLCVGNPRKTKSSFKGDSGGPLLCAGVAQGIASYGRIDAKPPRVFTRISHYRPWINQILQAN
B2: chymase C22S/K40L/F41A/K192R/A226R (enzyme)
chain: B1 chain with Q26P, A28L, R29A, H86L, I125V, N159D, S177A, K179R, A196V, I201S
B3: chymase C22S/K40L/F41V/G151R/K192R/A226R (enzyme)
chain: IIGGTESKPHSRPYMAYLEIVTSNGPSLVCGGFLIRRNFVLTAAHCAGRSITVTLGAHNITEEEDTWQKLEVIKQFRHPKYNTSTLHHDIMLLKLKEKASLTLAVGTLPFPSQFNFVPPGRMCRVAGWGRTGVLKPRSDTLQEVKLRLMDPQACSHFRDFDHNLQLCVGNPRKTKSAFRGDSGGPLLCAGVAQGIVSYGRSDAKPPRVFTRISHYRPWINQILQAN
B4: chymase C22S/P38Q/K40I/F41R/L99N/V138I/D175T/A190S/V213A/S218V/A226R (enzyme)
chain: B1 chain with A28I, H86N, N159T, I201V
B5: chymase C22S/P38Q/K40M/F41R/L99S/V138I/F173Y/D175N/A190S/V213A/S218V/A226R (enzyme)
chain: B1 chain with A28M, H86S, F157Y, I201V
B6: chymase C22S/P38Q/K40M/F41R/V138I/F173Y/D175Y/A190S/V213A/S218I/A226R (enzyme)
chain: B1 chain with A28M, H86L, F157Y, N159Y
B7: chymase C22S/K40M/F41V/G151R/K192R/A226R (enzyme)
chain: B3 chain with L28M
B8: chymase C22S/P38Q/K40L/F41R/V138I/F173Y/D175R/A190S/V213A/S218T/A226R (enzyme)
chain: B1 chain with A28L, H86L, F157Y, N159R, I201T
B9: chymase C22S/K40M/F41V/K192R/A226R (enzyme)
chain: B3 chain with L28M, R137G
B10: chymase C22S/P38Q/K40A/F41R/L99H/V138I/F173Y/D175N/A190S/V213A/S218L/A226R (enzyme)
chain: B1 chain with F157Y, I201L
B11: chymase C22S/P38Q/K40A/F41T/L99Y/V138I/F173S/D175H/A190S/V213A/S218I/A226R (enzyme)
chain: B1 chain with R29T, H86Y, F157S, N159H
B12: chymase C22S/P38Q/K40A/F41K/L99N/V138I/D175H/A190S/V213A/S218V/A226R (enzyme)
chain: B1 chain with R29K, H86N, N159H, I201V
B13: chymase C22S/L99R/F173L/K192R/Y215H/R217T/S218V/A226R (enzyme)
chain: B3 chain with L28K, V29F, L86R, R137G, F157L, Y198H, R200T, S201V
B14: chymase C22S/L99W/F173K/R217S/S218R/A226R (enzyme)
chain: B3 chain with L28K, V29F, L86W, R137G, F157K, R179K, R200S, S201R
B15: chymase C22S/L99Y/F173L/K192R/Y215H/R217T/S218V/A226R (enzyme)
chain: B3 chain with L28K, V29F, L86Y, R137G, F157L, Y198H, R200T, S201V
B16: chymase C22S/F41V/L99H/F173Y/Y215K/A226R (enzyme)
chain: B3 chain with L28K, L86H, R137G, F157Y, R179K, Y198K
B17: chymase C22S/F41R/L99H/G151A/F173S/Y215K/R217T/A226R (enzyme)
chain: B3 chain with L28K, V29R, L86H, R137A, F157S, R179K, Y198K, R200T
B18: chymase C22S/F41K/L99H/G151A/F173Y/Y215K/R217S/A226R (enzyme)
chain: B3 chain with L28K, V29K, L86H, R137A, F157Y, R179K, Y198K, R200S
B19: chymase C22S/F41R/L99H/G151T/F173Y/Y215K/A226R (enzyme)
chain: B3 chain with L28K, V29R, L86H, R137T, F157Y, R179K, Y198K
B20: chymase C22S/F41G/L99H/G151T/F173Y/Y215K/A226R (enzyme)
chain: B3 chain with L28K, V29G, L86H, R137T, F157Y, R179K, Y198K
B21: chymase C22S/L99F/F173K/K192R/R217S/S218I/A226R (enzyme)
chain: B3 chain with L28K, V29F, L86F, R137G, F157K, R200S, S201I
B22: chymase C22S/F41I/L99H/G151K/F173Y/Y215K/R217G/A226R (enzyme)
chain: B3 chain with L28K, V29I, L86H, R137K, F157Y, R179K, Y198K, R200G
B23: chymase C22S/L99H/F173Y/K192R/Y215K/R217S/S218V/A226R (enzyme)
chain: B3 chain with L28K, V29F, L86H, R137G, F157Y, Y198K, R200S, S201V
B24: chymase C22S/L99R/F173Y/K192R/S218L/A226R (enzyme)
chain: B3 chain with L28K, V29F, L86R, R137G, F157Y, S201L
B25: chymase C22S/F41V/L99H/G151R/F173S/Y215K/A226R (enzyme)
chain: B3 chain with L28K, L86H, F157S, R179K, Y198K
B26: chymase C22S/F41G/L99H/F173Y/Y215K/A226R (enzyme)
chain: B3 chain with L28K, V29G, L86H, R137G, F157Y, R179K, Y198K
B27: chymase C22S/F41R/L99H/F173Y/Y215K/A226R (enzyme)
chain: B3 chain with L28K, V29R, L86H, R137G, F157Y, R179K, Y198K
B28: chymase C22S/L99W/F173K/K192R/R217S/S218V/A226R (enzyme)
chain: B3 chain with L28K, V29F, L86W, R137G, F157K, R200S, S201V
B29: chymase C22S/F41L/L99H/G151T/F173Y/Y215K/A226R (enzyme)
chain: B3 chain with L28K, V29L, L86H, R137T, F157Y, R179K, Y198K

molecular target: Human Factor B (human) (UniProt P00751); assay: cell-based or functional assay
Sequence (P00751 26-764 limits assumed): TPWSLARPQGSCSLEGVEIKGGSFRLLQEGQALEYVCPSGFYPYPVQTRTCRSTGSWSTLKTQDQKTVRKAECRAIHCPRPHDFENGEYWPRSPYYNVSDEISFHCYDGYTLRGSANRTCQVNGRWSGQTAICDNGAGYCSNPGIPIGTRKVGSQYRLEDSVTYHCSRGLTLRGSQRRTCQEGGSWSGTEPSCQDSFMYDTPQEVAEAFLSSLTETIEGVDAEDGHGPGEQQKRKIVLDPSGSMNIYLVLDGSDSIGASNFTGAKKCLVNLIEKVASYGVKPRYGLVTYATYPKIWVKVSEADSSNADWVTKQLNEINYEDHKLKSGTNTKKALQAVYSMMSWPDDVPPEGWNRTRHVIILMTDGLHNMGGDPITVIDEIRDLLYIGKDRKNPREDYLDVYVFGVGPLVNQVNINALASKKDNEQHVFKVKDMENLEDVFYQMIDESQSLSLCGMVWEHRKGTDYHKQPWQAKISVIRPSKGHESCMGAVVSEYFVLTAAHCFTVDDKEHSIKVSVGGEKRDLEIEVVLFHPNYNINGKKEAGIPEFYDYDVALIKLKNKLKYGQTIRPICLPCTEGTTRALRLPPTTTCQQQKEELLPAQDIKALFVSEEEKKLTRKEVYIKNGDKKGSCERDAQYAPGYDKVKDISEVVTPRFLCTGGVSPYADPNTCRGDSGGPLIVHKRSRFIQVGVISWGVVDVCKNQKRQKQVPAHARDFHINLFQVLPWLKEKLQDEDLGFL

| fB Cleavage EC50 [µM] | fB Cleavage, 64% A2M-depl plasma EC50 [µM] | fB Cleavage, 64% plasma EC50 [µM] | fB Cleavage, 80% plasma EC50 [µM] | Binder |
| --- | --- | --- | --- | --- |
| 0.17 | – | – | – | B1 |
| 7.39 | – | – | – | B2 |
| 7.5 | – | – | – | B3 |
| 0.203 | – | – | – | B4 |
| 0.472 | – | – | – | B5 |
| 0.465 | – | – | – | B6 |
| 7.77 | – | – | – | B7 |
| 0.223 | – | – | – | B8 |
| 7.77 | – | – | – | B9 |
| 0.139 | – | – | – | B10 |
| 3.13 | – | – | – | B11 |
| 0.121 | – | – | – | B12 |
| 7.77 | 2.29 | 4.38 | 7.59 | B13 |
| 2.66 | – | – | – | B14 |
| – | 4.58 | 12.4 | – | B15 |
| 6.06 | – | – | – | B16 |
| 2.25 | 2.88 | 3.4 | – | B17 |
| 1.31 | 5.75 | 5.69 | 18.6 | B18 |
| 3.22 | – | – | – | B19 |
| 6.6 | – | – | – | B20 |
| 4 | – | – | – | B21 |
| 7.77 | – | – | – | B22 |
| 3.46 | – | – | – | B23 |
| 0.555 | – | – | – | B24 |
| 4.78 | – | – | – | B25 |
| 6.65 | – | – | – | B26 |
| 4.8 | – | – | – | B27 |
| 2.49 | – | – | – | B28 |
| 3.23 | – | – | – | B29 |
